# Measurements as given in the Immune Epitope Database (IEDB).
# What was measured:
# Conditions in all cases: source organism: Shigella boydii CDC 3083-94
# HLA-C*06:02 = test: IEDB peptide-MHC binding, purified MHC/direct/fluorescence; filed as Kd, often an IC50 or EC50 that approximates it; ≥ and ≤ were set here for values at or beyond the usual limits of such assays
# HLA-B*27:20 = test: IEDB peptide-MHC binding, purified MHC/competitive/fluorescence; filed as Kd, often an IC50 or EC50 that approximates it; ≥ and ≤ were set here for values at or beyond the usual limits of such assays
# HLA-A*26:01 = test: as above
# HLA-B*40:13 = test: as above
# HLA-A*02:19 = test: as above
# HLA-B*83:01 = test: as above
# HLA-A*29:02 = test: as above
# HLA-B*45:06 = test: as above
# HLA-A*32:07 = test: as above
# HLA-B*15:42 = test: as above
# HLA-A*32:15 = test: as above
# HLA-B*51:01 = test: as above
# HLA-C*14:02 = test: as above
# HLA-B*27:03 = test: as above
# HLA-A*03:19 = test: as above
# HLA-B*18:01 = test: as above
# HLA-B*57:01 = test: as above
# HLA-A*02:01 = test: as above
sequence,measurement,setting,value
GMMRWCMPV,Kd,HLA-C*06:02,≥ 20 µM
same,Kd,HLA-B*27:20,0.0004 µM
same,Kd,HLA-A*26:01,≥ 20 µM
same,Kd,HLA-B*40:13,0.201 µM
same,Kd,HLA-A*02:19,0.0002 µM
same,Kd,HLA-B*83:01,≥ 5 µM
same,Kd,HLA-A*29:02,0.0515 µM
same,Kd,HLA-B*45:06,0.0692 µM
same,Kd,HLA-A*32:07,0.0052 µM
same,Kd,HLA-B*15:42,16.9 µM
same,Kd,HLA-A*32:15,0.813 µM
same,Kd,HLA-B*51:01,≥ 20 µM
same,Kd,HLA-C*14:02,0.0936 µM
same,Kd,HLA-B*27:03,≥ 20 µM
same,Kd,HLA-A*03:19,1.13 µM
same,Kd,HLA-B*18:01,≥ 20 µM
same,Kd,HLA-B*57:01,≥ 20 µM
same,Kd,HLA-A*02:01,≤ 0.0001 µM
